The text below walks through data of patent US20210138090A1, “uPAR targeting peptide for use in peroperative optical imaging of invasive cancer” (FLUOGUIDE A/S, priority 2014, published 2021).

Structures are written as SMILES. Square brackets hold non-standard residues; d marks the D form. Peptide text beside a SMILES is read from it. * marks the point of attachment. IRDye800CW = CC1(C)C(/C=C/C2=C(Oc3ccc(S(=O)(=O)O)cc3)C(=C/C=C3/N(CCCCS(=O)(=O)O)c4ccc(S(=O)(=O)O)cc4C3(C)C)/CCC2)=[N+](CCCCCC(=O)*)c2ccc(S(=O)(=O)[O-])cc21; Cha = N[C@@H](CC1CCCCC1)C(=O)O; AEEA = NCCOCCOCC(=O)O

In one data set the target is uPAR wt (Homo sapiens, UniProt Q03405). Nature of the data set: SPR inhibition of uPAR binding to immobilized uPA. The procedure: (§1) Covalent immobilization of purified human prouPA^S356A—was accomplished by injecting 12.5 μg/ml protein dissolved in 10 mM sodium acetate (pH 5.0) over a CM5 chip that had been pre-activated with NHS/EDC (N-ethyl-N′-[3-[…])propyl]-carbodiimide), aiming at a surface density of >5000 resonance units (RU) corresponding to 100 fmols/mm^2. After coupling the sensorchip was deactivated with 1 M ethanolamine. Binding of purified human uPAR as analyte was measured from 4 nM to 0.25 nM at 20° C. using 10 mM HEPES, 150 mM NaCl, 3 mM EDTA (pH 7.4) containing 0.05% (v/v) surfactant P20 as running buffer at a flow rate of 50 μl/min. In between cycles the sensorchip was regenerated by two consecutive 10-μl injections of 0.1 M acetic acid/HCl (pH 2.5) in 0.5 M NaCl. The inhibition of 3-fold dilutions of the compounds in question was measured for 4 nM uPAR with identical running conditions. All experiments were performed on a BiacoreT200 instrument.
Chain of uPAR wt (Q03405 23-305 limits assumed): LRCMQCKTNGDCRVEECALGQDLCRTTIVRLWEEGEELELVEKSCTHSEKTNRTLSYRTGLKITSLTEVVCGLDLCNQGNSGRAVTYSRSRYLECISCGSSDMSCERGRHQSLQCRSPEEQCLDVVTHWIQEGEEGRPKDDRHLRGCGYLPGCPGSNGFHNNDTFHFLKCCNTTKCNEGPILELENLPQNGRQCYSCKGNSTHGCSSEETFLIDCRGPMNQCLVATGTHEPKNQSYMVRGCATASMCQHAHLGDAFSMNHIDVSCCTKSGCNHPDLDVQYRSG
(§2) For each inhibition peptide inhibition profile of uPAR binding to immobilized uPA there has been run a preceding standard curve and all calculations are based on the that standard curve.
(§3) Surface plasmon resonance (SPR) was applied to determine the […]-value of IRDye800-AE344 on the uPAR⋅uPA interaction in solution using a Biacore 3000 instrument essentially as described. In brief; pro-uPA^S356A, which is the natural ligand for uPAR. […] The analysis was carried out by measuring vobs of a fixed uPAR concentration (2 nM) incubated with a 3-fold dilution series of IRDye800-AE344 (ranging from 0.076 nM to 1.5 μM) for 300 sec at 20° C. with a flow rate of 50 μL/min. A standard curve was measured in parallel (2-fold dilution of uPAR covering 0.06 nM to 2 nM) including one repeated concentration point at the end to validate the biological integrity of the sensor chip. Running buffer contained 10 mM HEPES, 150 mM NaCl, 3 mM EDTA and 0.05% (v/v) surfactant P20, pH 7.4. The sensor chip was regenerated with two injections of 0.1 M acetic acid, 0.5 M NaCl. The parent nonamer peptide antagonist AE105 (Asp-Cha-Phe-D-Ser-D-Arg-Tyr-Leu-Trp-Ser-OH) was analyzed in parallel as positive control and the closed uPAR^H47C-N259C was used as negative control as its uPA binding cavity cannot accommodate AE105.

Data set [1] relates to orthotopic GBM (U-87 MG-luc2 cells). Nature of the data set: in vivo binding specificity in orthotopic GBM (blocking with AE120, scrambled probe). Further details: species or system mice. Conditions: 3 nmol, 1 h. Here is the method: The target specificity to uPAR was evaluated by two different methods: competitive blocking with the uPAR targeting peptide AE120 ((DChaFsrYLWSG)2-βAK) and IRDye800 conjugated to a scrambled peptide, AE354 (IRDye800CW-Glu-Glu-NH—CH2—CH2—O—CH2—CH2—O—CH2—CO—NH—CH2—CH2—O—CH2—CH2—O—CH2—CO-Asp-Cha-Glu-(D)Ser-(D)Arg-Tyr-Leu-Glu-Ser-OH) with similar peptide length as the active peptide. The competitive blocking dose of 1.4-2.8 mg AE120 was injected intraperitoneally 15-30 min prior to intravenous injection of 3 nmol IRDye800CW-AE344 and imaged at 1 h (n=5). The scrambled peptide was administered at 3 nmol and the animals were imaged after 1 h (n=4).
Images were analyzed and processed in ImageJ 1.52a, NIH, USA. Signal measurements were performed on the raw images generated by the Fluoptics system. Tumor signal was measured as a mean fluorescence intensity of the whole tumor and background signal was measured as the mean of a representative area with no tumor on the contralateral hemisphere. Presented pictures are contrast enhanced in ImageJ with the Contrast Enhancement (Saturated pixels: 0.3%).

The next data set has as its target uPAR H47C-N259C (Homo sapiens, UniProt Q03405, H69C/N281C). Nature of the data set: SPR inhibition of uPAR binding to immobilized uPA, constrained uPAR variant (negative control). Here is the method:
as §1, §2
as §3, with “Running buffer contained 10 mM HEPES, 150 mM NaCl, 3 mM EDTA and 0.05% (v/v) surfactant P20, pH 7.4. The sensor chip was regenerated with two injections of 0.1 M acetic acid, 0.5 M NaCl.” left out

Data set [2] in a line: photostability under continuous laser exposure. It is filed as physicochemical. Here is the method: The photostability was evaluated by a factor 2 dilution series with four samples from 0.23-1.8 nM IRDye800-AE344 in 100 μL phosphate buffered saline (PBS) placed in a black 96-well plate. The well was placed in a black box with the Fluobeam mounted in the top at a distance of 23 cm from the well plate. Image acquisition was performed at 0 min, 10 min, 15 min, 20 min, 0.5 h, 1 h, 2 h, 3 h, 6 h, 10 h, 15 h, 24 h. Each dilution sample was normalized to time point 0 and the data from all four samples were pooled.

Data set [3] in a line: vis/NIR spectral properties. It is filed as physicochemical. The procedure: Fluorophore excitation and emission profiles were obtained with PTI QuantaMaster 400 (Horiba Ltd., Japan). Excitation profile was measured at λemission=850 nm and the emission profile were measured at λexcitation=740 nm with xenon arc lamps as excitation source. Absorption was measured on a Cary 300 UV-Vis (Agilent, Santa Clara, Calif., USA).

The nature of data set [4]: acute toxicity: liver and kidney histology. It is filed as in vivo, mice. To be noted: 3 nmol, 1 h post injection. The source says:
Liver and kidneys: Tissue was formalin fixed and paraffin embedded. Sections of 2-4 um thick were cut and a routine staining panel applied including: H&E, modified sirius, PAS and Masson trichome for both and additional PAS with silver for kidneys and PAS with diastase, iron, reticulin artisan and oxidised orcein for the livers. Livers were immunohistochemically stained, immunohistochemical evaluation on 3 μm thick sections was done using the CK7 antibody from Dako/Agilent, GA619 (clone OV-TL12/30) following the manufacturer's instructions. The staining took place on the Omnis from Agilent utilizing the EnVision Flex+ detection kit (GV800). The primary antibody was diluted using Antibody Diluent (Dako DM830) and were incubated for 20 minutes. The sections were counterstained with hematoxylin.

Chain of uPAR H47C-N259C (Q03405 23-305 H69C/N281C limits assumed): as the sequence (Q03405 23-305 limits assumed) above, with H47C, N259C counted along it

For the compound `CC(C)C[C@H](NC(=O)[C@H](Cc1ccc(O)cc1)NC(=O)[C@@H](CCCNC(=N)N)NC(=O)[C@@H](CO)NC(=O)[C@H](Cc1ccccc1)NC(=O)[C@H](CC1CCCCC1)NC(=O)[C@H](CC(=O)O)NC(=O)COCCOCCNC(=O)COCCOCCNC(=O)[C@H](CCC(=O)O)NC(=O)[C@H](CCC(=O)O)NC(=O)CCCCC[N+]1=C(/C=C/C2=C(Oc3ccc(S(=O)(=O)O)cc3)C(=C/C=C3/N(CCCCS(=O)(=O)O)c4ccc(S(=O)(=O)O)cc4C3(C)C)/CCC2)C(C)(C)c2cc(S(=O)(=O)[O-])ccc21)C(=O)N[C@@H](Cc1c[nH]c2ccccc12)C(=O)N[C@@H](CO)C(=O)O` [IRDye800CW-AE344, IRDye800-Glu-Glu-O2Oc-O2Oc-Asp-Cha-Phe-D-ser-D-arg-Tyr-Leu-Trp-Ser-OH] (IRDye800CW-EE[AEEA][AEEA]D[Cha]F[dS][dR]YLWS-OH), the IC50 – broadly, the concentration that gives 50% inhibition – at uPAR wt came out at 20 ± 1.1 nM. In data set [1] (blocked with AE120), this compound showed a TBR of 4.6. Moreover, the “normalized TBR (ref: active probe)” value in data set [1] (competitively blocked with AE120) was determined as 0.70. Moreover, in data set [1] (no blocking), the TBR stood at 6.6 and the “normalized TBR (ref: active probe)” value worked out at 1.00. Moreover, the concentration for half-maximal inhibition (IC50) at uPAR H47C-N259C stood at 5800 ± 20 nM. Also, the “preserved fluorescence intensity (photostability)” value in data set [2] (continuous laser exposure for 1 h) is reported as 84%. In data set [2] (continuous laser exposure, after 2 h), the “preserved fluorescence intensity (photostability)” value came out at 62%. In addition, in data set [3], the Stokes shift came to 10 nm, the “absorption peak λabs,max” value came out at 777 nm, the “excitation peak λexcitation,max” value is reported as 784 nm and the “peak emission λemission,max” value came to 794 nm. Further, in data set [4], the “kidney histology (H&E stained)” value is “normal” and the “liver histology (H&E stained)” value was “normal”.
